Laboratory results from article PMC8257933.

B1: NTCP wild type, NTCP-FLAG and NTCP-V5-His expressed in HEK293 cells [human] / NTCP wild type, NTCP-FLAG and NTCP-V5-His expressed in HEK293 cells [human] (parent)
chain 1: MEAHNASAPFNFTLPPNFGKRPTDLALSVILVFMLFFIMLSLGCTMEFSKIKAHLWKPKGLAIALVAQYGIMPLTAFVLGKVFRLKNIEALAILVCGCSPGGNLSNVFSLAMKGDMNLSIVMTTCSTFCALGMMPLLLYIYSRGIYDGDLKDKVPYKGIVISLVLVLIPCTIGIVLKSKRPQYMRYVIKGGMIIILLCSVAVTVLSAINVGKSIMFAMTPLLIATSSLMPFIGFLLGYVLSALFCLNGRCRRTVSMETGCQNVQLCSTILNVAFPPEVIGPLFFFPLLYMIFQLGEGLLLIAIFWCYEKFKTPKDKTKMIYTAATTEETIPGALGNGTYKGEDCSPCTA
chain 2: B1 chain 1

Variants of: B1
Test: co-IP (IP anti-FLAG agarose, western blot anti-V5, ImageJ band quantification)
Details: with NTCP wild type, HEK293 cells co-transfected with NTCP-FLAG and NTCP-V5-His, n = 3 independent experiments, parent: 100, read off a plot

Row | Variant | percent of parent
1 | chain 1 G60L A64L G233L G237L | 160 % of control
2 | chain 1 G60L A64L | 110 % of control
3 | chain 1 G233L G237L | 130 % of control
